Reference: article PMC12319226 (Frontiers in Bioinformatics, 2025)
Changes are numbered by the printed parent chain.

T1: fHbp m001691 (Neisseria meningitidis; fHbp …, point mutant)
T1 chain: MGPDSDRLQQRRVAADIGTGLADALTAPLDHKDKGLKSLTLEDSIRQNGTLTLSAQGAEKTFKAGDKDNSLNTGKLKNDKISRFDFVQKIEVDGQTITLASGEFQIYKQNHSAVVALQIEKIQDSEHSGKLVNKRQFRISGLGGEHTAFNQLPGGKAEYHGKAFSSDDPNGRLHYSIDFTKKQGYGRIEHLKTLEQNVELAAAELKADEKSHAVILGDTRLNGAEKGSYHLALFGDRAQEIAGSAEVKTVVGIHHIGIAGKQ

T2: fHbp m001929 (Neisseria meningitidis; fHbp …, chimera)
T2 chain: T1 chain with L221Y, N222G, V251E, G252A

T3: fHbp m001932 (Neisseria meningitidis; fHbp …, chimera)
T3 chain: T1 chain with L221Y, N222G, V251N, G252A

T4: fHbp m001935 (Neisseria meningitidis; fHbp …, chimera)
T4 chain: T1 chain with L221Y, N222G, G252A

T5: fHbp m002415 (Neisseria meningitidis, designed fHbp …, chimera)
T5 chain: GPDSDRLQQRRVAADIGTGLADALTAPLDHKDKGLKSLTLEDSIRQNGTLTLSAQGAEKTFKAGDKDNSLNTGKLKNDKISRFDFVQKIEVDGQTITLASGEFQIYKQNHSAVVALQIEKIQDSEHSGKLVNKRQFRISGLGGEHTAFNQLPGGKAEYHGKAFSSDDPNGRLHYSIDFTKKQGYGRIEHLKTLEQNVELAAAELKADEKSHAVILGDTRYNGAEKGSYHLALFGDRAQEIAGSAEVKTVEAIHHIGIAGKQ

T6: fHbp m002416 (Neisseria meningitidis, designed fHbp …, chimera)
T6 construct: also called fHbp 2,416; Round 2 best mutant
T6 chain: T5 chain with E250N, A251G

T7: fHbp m002421 (Neisseria meningitidis, designed fHbp …, point mutant)
T7 chain: T5 chain with E250V

T8: fHbp mutant 0012 (Neisseria meningitidis, fHbp v1.1 mutant, point mutant)
T8 chain: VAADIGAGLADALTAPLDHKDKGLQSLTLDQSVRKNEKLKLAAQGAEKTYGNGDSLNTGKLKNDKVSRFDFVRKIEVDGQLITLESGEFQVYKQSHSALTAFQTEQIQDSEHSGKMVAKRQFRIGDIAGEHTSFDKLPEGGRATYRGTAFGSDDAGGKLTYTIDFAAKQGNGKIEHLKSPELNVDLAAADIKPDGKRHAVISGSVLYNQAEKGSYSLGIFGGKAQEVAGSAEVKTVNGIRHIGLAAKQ

T9: factor H binding protein variant 3.28 (Neisseria meningitidis, fHbp variant …)
T9 construct: also called fHbp v3.28; v3.28 Control (0002)
T9 chain: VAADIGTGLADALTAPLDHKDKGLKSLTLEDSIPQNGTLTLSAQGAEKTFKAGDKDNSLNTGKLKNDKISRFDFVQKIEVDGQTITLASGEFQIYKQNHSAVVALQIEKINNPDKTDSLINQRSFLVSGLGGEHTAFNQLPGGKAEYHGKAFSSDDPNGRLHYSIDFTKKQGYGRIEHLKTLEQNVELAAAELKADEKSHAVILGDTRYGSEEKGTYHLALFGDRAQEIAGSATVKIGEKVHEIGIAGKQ

B1: chimeric antibody h12C1 (antibody, V domains shown)
VH: QVQLQESGPELVKPGASVKISCKASGYSFSDYNMSWVKQSNGKSLEWIGIIDPKYGTINYNQKFKGKATLTVDQASSTAYMQLNSLTSEDSAVYYCVRDYYGSSYFDYWGQGTTLTVSS
VL: DIVLTQSPSSIYASLGERVTLTCKASQDIHNYLNWFQQKPGKSPKTLIYRANRLVDGVPSRFSGGGSGQDYSLTISSLEFEDIGIYYCLQYDEFPPTFGGGTRLEIK
notes: also called humanized 12C1; source: Expi293, purified (MabSelect SuRe, SEC); copies: 2 + 2
B2: mAb 1E6 (human) (antibody, V domains shown)
VH: EVQLVQSGAEVKKPGSSVKVSCKASGGTVIDYPITWVRQAPGQGLEWVGGFVPLFRTSNYGQKFQGRVTITADKSTSTASMELNSLTSEDTAIYYCARGDTAMGPFDYWGQGTLVTVSS
VL: SYVLTQPPSLSVAPGKTATLTCGGNNIAGKTVHWYQQRPGQAPVLVISYDSDRPSGIPERFSGSNSANTATLTISRVEAGDEADYYCQVWDRNSDHWVFGGGTKLTVL
notes: source: Expi293, purified (MabSelect SuRe, SEC); copies: 2 + 2
B3: chimeric antibody hJAR5 (antibody, V domains shown)
VH: QVQMQQPGAELVKPGASVKLSCKASGYTFISYWMHWVKQRPGRGLEWIGRIAPDTGIIYYNEKFKNKATLTVDTPSSTAYMQLNSLTSEDSAVYYCARYLKYDGSTYRFDYWGQGTTLTVSS
VL: DIVMTQAAPSVPVTPGESVSISCRSSKSLLHSNGNTYLFWFLQRPGQSPQLLIYRMSNLASGVPDRFSGSGSGTSFTLRISRVEAEDVGVYYCMQHLEYPYTFGGGTKLEIK
notes: also called hJAR5-2; humanized JAR5; source: Expi293, purified (MabSelect SuRe, SEC); copies: 2 + 2
B4: mAb 4B3 (human) (antibody, V domains shown)
VH: QVQLVQSGGGLVKPGGSLRLSCAASGFPFSSYYMSWIRQAPGKGLEWVSDINNSGNVKEYADFVKGRLTISRDNVKNSMYLHMNSLRVEDTAVYYCARNRGRFDVWGQGTLVTVSA
VL: EIVMTQSPGTLSLSPGETATLSCRASQMISSPFLAWYQQRRGQAPRLLIYGASTRATDTPDRFRGSGSGTDFILTISRLEPEDFAVYYCQYYDDSPFTFGQGTKLEIK
notes: also called 4B3-2; source: Expi293, purified (MabSelect SuRe, SEC); copies: 2 + 2

Legend:
Experiment in all cases: BLI
Details in all cases: both partners purified
[1] = biological target: T1, fHbp m001691
[2] = biological target: T2, fHbp m001929
[3] = biological target: T3, fHbp m001932
[4] = biological target: T4, fHbp m001935
[5] = biological target: T5, fHbp m002415
[6] = biological target: T6, fHbp m002416
[7] = biological target: T7, fHbp m002421
[8] = biological target: T8, fHbp mutant 0012
[9] = biological target: T9, factor H binding protein variant 3.28

Binder	Kd [1]	koff [1]	kon [1]	Kd [2]	koff [2]	kon [2]	Kd [3]	koff [3]	kon [3]	Kd [4]	koff [4]	kon [4]	Kd [5]	koff [5]	kon [5]	koff [6]	kon [6]	Kd [7]	koff [7]	kon [7]	further results
B1	34 nM	0.00857 s⁻¹	252000 ± 2680 M⁻¹ s⁻¹	45.9 nM	0.00802 s⁻¹	175000 ± 4560 M⁻¹ s⁻¹	35.2 nM	0.0057 s⁻¹	161900 ± 1160 M⁻¹ s⁻¹	18.9 nM	0.00626 s⁻¹	330500 ± 3080 M⁻¹ s⁻¹	66.7 nM	0.00939 s⁻¹	141000 ± 2240 M⁻¹ s⁻¹	5.89e-05 s⁻¹	201100 ± 1150 M⁻¹ s⁻¹	33.8 nM	0.00845 s⁻¹	250000 ± 2560 M⁻¹ s⁻¹	
B2	1.01 nM	0.000364 s⁻¹	361600 ± 1550 M⁻¹ s⁻¹	0.235 nM	9.11e-05 s⁻¹	387500 ± 2190 M⁻¹ s⁻¹	0.303 nM	0.000105 s⁻¹	347000 ± 1890 M⁻¹ s⁻¹	0.131 nM	5.4e-05 s⁻¹	412500 ± 2300 M⁻¹ s⁻¹	0.831 nM	0.000302 s⁻¹	363300 ± 1200 M⁻¹ s⁻¹	0.000104 s⁻¹	322000 ± 2420 M⁻¹ s⁻¹	0.131 nM	5.56e-05 s⁻¹	424400 ± 3050 M⁻¹ s⁻¹	Kd [8]: 3.52 nM; koff [8]: 0.00661 s⁻¹; kon [8]: 1.88e+06 ± 58600 M⁻¹ s⁻¹; Kd [9]: 1.76 nM; koff [9]: 0.000238 s⁻¹; kon [9]: 135000 ± 961 M⁻¹ s⁻¹
B3	0.838 nM			0.347 nM			3.73 nM			0.401 nM			0.664 nM					0.193 nM			
B4	3.1 nM	0.000731 s⁻¹	235300 ± 1280 M⁻¹ s⁻¹	2.63 nM	0.000635 s⁻¹	242000 ± 2590 M⁻¹ s⁻¹	0.814 nM	0.000321 s⁻¹	394600 ± 1740 M⁻¹ s⁻¹	2.34 nM	0.000973 s⁻¹	415300 ± 2100 M⁻¹ s⁻¹	3.78 nM	0.00101 s⁻¹	267700 ± 1540 M⁻¹ s⁻¹	0.00113 s⁻¹	296100 ± 925 M⁻¹ s⁻¹	1.25 nM	0.00101 s⁻¹	803900 ± 3510 M⁻¹ s⁻¹	Kd [8]: 1.39 nM; koff [8]: 0.00126 s⁻¹; kon [8]: 906000 ± 2710 M⁻¹ s⁻¹; Kd [9]: 5.15 nM; koff [9]: 0.000542 s⁻¹; kon [9]: 105000 ± 1620 M⁻¹ s⁻¹
